Source: FireProtDB
Where “and” joins values, the source holds several entries; their conditions need not be identical. Equal values may be shown once.

Conditions: whole UniProt chain shown
[1] = Bos taurus, pH 2, 35 °C, Urea, NMR, Unknown, reversible: no
[2] = Bos taurus, pH 2.2, 25 °C, GdnHCl, CD, Sodium cacodylate 50 mM, NaCl 50 mM
[3] = Bos taurus, pH 3, Thermal, DSC, Tris-HCl 10 mM
[4] = Bos taurus, pH 4.2, Thermal, DSC, Tris-HCl 10 mM
[5] = Bos taurus, pH 5.2, Thermal, DSC, Tris-HCl 10 mM
[6] = Bos taurus, pH 6.2, Thermal, DSC, citrate 10 mM
[7] = Bos taurus, pH 6.3, 25 °C, GdnHCl, CD, Sodium acetate 100 mM, CaCl2 2 mM, transition: 3
[8] = Bos taurus, pH 6.3, 25 °C, GdnHCl, CD, Sodium acetate 100 mM, CaCl2 2 mM
[9] = Bos taurus, pH 6.3, 25 °C, Thermal, CD, imidazole-HCl 40 mM
[10] = Bos taurus, pH 7, 4.5 °C, GdnHCl, CD, cacodylate 50 mM, NaCl 0.1 M
[11] = Bos taurus, pH 7, 25 °C, GdnHCl, CD, sodium cacodylate 50 mM, NaCl 50 mM
[12] = Bos taurus, pH 7, Thermal, CD, C2H6AsNaO2 50 mM, NaCl 50 mM
[13] = Bos taurus, pH 7.5, Thermal, DSC, Tris-HCl 10 mM, CaCl2 260 micro M
[14] = Bos taurus, pH 8, 25 °C, GdnHCl, CD, Tris-HCl 20 mM
[15] = Bos taurus, pH 8, 25 °C, Thermal, CD, borate 10 mM, NaCl 0.01-1.0 M
[16] = Bos taurus, pH 8, 25 °C, Thermal, DSC, Tris-HCl 10 mM, reversible: yes
[17] = Bos taurus, pH 8, Thermal, DSC, Tris-HCl 5 mM
[18] = Bos taurus, pH 8, Thermal, DSC, Tris-HCl 10mM, reversible: yes
[19] = Bos taurus, pH 8, Thermal, DSC, borate 10 mM, NaCl 0.2 M, reversible: yes (>95%)
[20] = Bos taurus, pH 6.7, Thermal, DSC, phosphate 10 mM, MgCl2 0.5 mM, reversible: No
[21] = Bacillus subtilis (strain 168), pH 7, Thermal, CD, Potassium phosphate 50 mM, reversible: yes

B1: Alpha-lactalbumin wild type, P00711 (protein)
chain: MMSFVSLLLVGILFHATQAEQLTKCEVFRELKDLKGYGGVSLPEWVCTTFHTSGYDTQAIVQNNDSTEYGLFQINNKIWCKDDQNPHSSNICNISCDKFLDDDLTDDIMCVKKILDKVGINYWLAHKALCSEKLDQWLCEKL
denaturant m value [1]: 0.33 kcal/mol/M
denaturant midpoint (higher = more stable) [1]: 4.45 M
unfolding free energy [1]: 1.46 kcal/mol
denaturant m value [2]: 0.76 kcal/mol/M
denaturant midpoint (higher = more stable) [2]: 3.16 M
unfolding free energy [2]: 2.41 kcal/mol
Tm [3]: 29.6 °C
heat capacity change of unfolding [3]: 0.93 kcal/mol/K
unfolding enthalpy (calorimetric) [3]: 36.1 kcal/mol
Tm [4]: 56.9 °C
heat capacity change of unfolding [4]: 1.17 kcal/mol/K
unfolding enthalpy (calorimetric) [4]: 64.5 kcal/mol
Tm [5]: 62.8 °C
heat capacity change of unfolding [5]: 1.26 kcal/mol/K
unfolding enthalpy (calorimetric) [5]: 71.9 kcal/mol
Tm [6]: 51.2 °C
heat capacity change of unfolding [6]: 1.61 kcal/mol/K
unfolding enthalpy (calorimetric) [6]: 59.1 kcal/mol
unfolding enthalpy (van 't Hoff) [6]: 61.5 kcal/mol
denaturant m value [7]: 1.85 kcal/mol/M
unfolding free energy [7]: 4.61 kcal/mol
denaturant m value [8]: 2.6 kcal/mol/M
unfolding free energy [8]: 6.21 kcal/mol
heat capacity change of unfolding [9]: 0.96 kcal/mol/K
unfolding enthalpy (van 't Hoff) [9]: 31.1 kcal/mol
unfolding free energy (Bos taurus, pH 6.65, 25 °C, GdnHCl, CD, potassium phosphate 0.01-0.03 M, KCl 0.1 M, reversible: yes): 6.5 kcal/mol
heat capacity change of unfolding (Bos taurus, pH 6.8, 25 °C, Thermal, CD, phosphate 10-20 mM, KCl 0.1 M): 1.49 kcal/mol/K
denaturant m value [10]: 2.27 kcal/mol/M
unfolding free energy [10]: 3.66 kcal/mol
denaturant m value (Bos taurus, pH 7, 25 °C, GdnHCl, CD, sodium cacodylate 50 mM, NaCl 50 mM, transition: 3): 1.79 kcal/mol/M and 0.64 kcal/mol/M
denaturant m value [11]: 2.43 kcal/mol/M
unfolding free energy [11]: 7.29 kcal/mol
Tm [12]: 25 °C
heat capacity change of unfolding [12]: 1.1 kcal/mol/K
unfolding enthalpy (van 't Hoff) [12]: 38 kcal/mol
Tm [13]: 64.2 °C
unfolding enthalpy (calorimetric) [13]: 72.2 kcal/mol
denaturant m value [14]: 0.84 kcal/mol/M
denaturant midpoint (higher = more stable) [14]: 2.46 M
unfolding free energy [14]: 2.07 kcal/mol
heat capacity change of unfolding [15]: 1.18 kcal/mol/K
unfolding enthalpy (van 't Hoff) [15]: 44.7 kcal/mol
heat capacity change of unfolding [16]: 1.03 kcal/mol/K
unfolding free energy [16]: 5.02 kcal/mol and 3.59 kcal/mol
Tm [17]: 28.2 °C
heat capacity change of unfolding [17]: 1.48 kcal/mol/K
unfolding enthalpy (calorimetric) [17]: 35.2 kcal/mol
Tm [18]: 55.2 °C
unfolding enthalpy (calorimetric) [18]: 55 kcal/mol
Tm [19]: 71.3 °C
heat capacity change of unfolding [19]: 1.6 kcal/mol/K
unfolding enthalpy (calorimetric) [19]: 80 kcal/mol
unfolding enthalpy (van 't Hoff) [19]: 84 kcal/mol

B2: Tubulin--tyrosine ligase wild type, P38584 (protein)
chain: MYTFVVRDENSSVYAEVSRLLLATGHWKRLRRDNPRFNLMLGERNRLPFGRLGHEPGLMQLVNYYRGADKLCRKASLVKLIKTSPELAESCTWFPESYVIYPTNLKTPVAPAQDGIHPPLHSSRTDEREFFLASYNRKKEEGEGNVWIAKSSAGAKGEGILISSDATELLDFIDNQGQVHVIQKYLERPLLLEPGHRKFDIRSWVLVDHQFNIYLYREGVLRTASEPYHMDNFQDKTCHLTNHCIQKEYSKNYGKYEEGNEMFFEAFNRYLTSALNITLESSILLQIKHIIRSCLMSVEPAISTKHLPYQSFQLFGFDFMVDEELKVWLIEVNGAPACAQKLYAELCQGIVDIAIASVFPPPDAEQQPPQPATFIKL
Tm [20]: 54.8 °C
unfolding enthalpy (calorimetric) [20]: 173 kcal/mol

B3: Phosphocarrier protein HPr wild type, P08877 (protein)
chain: MAQKTFKVTADSGIHARPATVLVQTASKYDADVNLEYNGKTVNLKSIMGVMSLGIAKGAEITISASGADENDALNALEETMKSEGLGE
denaturant midpoint (higher = more stable) (Bacillus subtilis (strain 168), pH 7, 30 °C, Urea, CD, Potassium phosphate 50 mM, reversible: yes): 3.93 M
Tm [21]: 73.6 °C and 77.5 °C
unfolding enthalpy (van 't Hoff) [21]: 59 kcal/mol and 63 kcal/mol

B4: Beta-glucanase wild type, K0A689 (protein)
chain: MKRVLLILVTGLFMSLFAVTSTASAQTGGSFFDPFNGYNSGFWQKADGYSNGNMFNCTWRANNVSMTSLGEMRLALTSPSYNKFDCGENRSVQTYGYGLYEVRMKPAKNTGIVSSFFTYTGPTDGTPWDEIDIEFLGKDTTKVQFNYYTNGAGNHEKIVDLGFDAANAYHTYAFDWQPNSIKWYVDGQLKHTATNQIPTTPGKIMMNLWNGTGVDEWLGSYNGVNPLYAHYDWVRYTKK
Tm (Bacillus tequilensis, pH 6.5, Thermal, Activity, phosphate buffer): 62 °C
